Assay results reported in patent US20190241648A1 (STATEN BIOTECHNOLOGY B V, published 2019).
Ends that are not written are not given here.

How the values were obtained:
Experiment in all cases: peptide microarray
ApoC3 peptide … D45S = target: T1, ApoC3 peptide … D45S (human, cyclic constrained)
T1 peptide: ARGWVTSGFSSLK
Procedure, shortened: (§1)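 Peptide microarrays of ApoC3-derived peptides incubated with antibody samples, then stained with goat anti-human IgG (Fc) DyLight680 (1:5000) and anti-HA DyLight800 (1:2000) control. Read-out by fluorescence scanning at intensities 7/7 (red/green); a secondary-only pre-stain checked background, HA frame peptides served as quality control.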

ApoC3 peptide … F47N = target: T2, ApoC3 peptide … F47N (human, not fully specified (bridges); also: cyclic constrained)
T2 peptide: ARGWVTDGNSSLK
Procedure, shortened: as §1

ApoC3 peptide … S48F = target: T3, ApoC3 peptide … S48F (human, not fully specified; cyclic constrained)
T3 peptide: ARGWVTDGFFSLK
Procedure, shortened: as §1

ApoC3 peptide … G41F = target: T4, ApoC3 peptide … G41F (human, also: cyclic constrained)
T4 peptide: ARFWVTDGFSSLK
Procedure, shortened: as §1

ApoC3 peptide … T44C = target: T5, ApoC3 peptide … T44C (human, not fully specified (bridges); also: cyclic constrained)
T5 peptide: ARGWVCDGFSSLK
Procedure, shortened: as §1

ApoC3 peptide … R40D = target: T6, ApoC3 peptide … R40D (human, not fully specified (bridges); also: cyclic constrained)
T6 peptide: ADGWVTDGFSSLK
Procedure, shortened: as §1

ApoC3 peptide … K51V = target: T7, ApoC3 peptide … K51V (human, not fully specified; cyclic constrained)
T7 peptide: ARGWVTDGFSSLV
Procedure, shortened: as §1

ApoC3 peptide … L50C = target: T8, ApoC3 peptide … L50C (human, not fully specified; cyclic constrained)
T8 peptide: ARGWVTDGFSSCK
Procedure, shortened: as §1

ApoC3 peptide … K51W = target: T9, ApoC3 peptide … K51W (human, not fully specified; cyclic constrained)
T9 peptide: ARGWVTDGFSSLW
Procedure, shortened: as §1

ApoC3 peptide … K51H = target: T10, ApoC3 peptide … K51H (human, not fully specified; cyclic constrained)
T10 peptide: ARGWVTDGFSSLH
Procedure, shortened: as §1

ApoC3 peptide … F47P = target: T11, ApoC3 peptide … F47P (human, not fully specified (bridges); also: cyclic constrained)
T11 peptide: ARGWVTDGPSSLK
Procedure, shortened: as §1

ApoC3 peptide … V43M = target: T12, ApoC3 peptide … V43M (human, not fully specified; cyclic constrained)
T12 peptide: ARGWMTDGFSSLK
Procedure, shortened: as §1

ApoC3 peptide … K51D = target: T13, ApoC3 peptide … K51D (human, thioether (positions not given here); also: cyclic constrained)
T13 peptide: ARGWVTDGFSSLD
Procedure, shortened: as §1

ApoC3 peptide … A39T = target: T14, ApoC3 peptide … A39T (human, not fully specified (bridges); also: cyclic constrained)
T14 peptide: TRGWVTDGFSSLK
Procedure, shortened: as §1

ApoC3 peptide … A39I = target: T15, ApoC3 peptide … A39I (human, cyclic constrained)
T15 peptide: IRGWVTDGFSSLK
Procedure, shortened: as §1

ApoC3 peptide … T44W = target: T16, ApoC3 peptide … T44W (human, not fully specified (bridges); also: cyclic constrained)
T16 peptide: ARGWVWDGFSSLK
Procedure, shortened: as §1

ApoC3 peptide … S48R = target: T17, ApoC3 peptide … S48R (human, not fully specified (bridges); also: cyclic constrained)
T17 peptide: ARGWVTDGFRSLK
Procedure, shortened: as §1

ApoC3 peptide … D45W = target: T18, ApoC3 peptide … D45W (human, cyclic constrained)
T18 peptide: ARGWVTWGFSSLK
Procedure, shortened: as §1

ApoC3 peptide … T44K = target: T19, ApoC3 peptide … T44K (human, not fully specified (bridges); also: cyclic constrained)
T19 peptide: ARGWVKDGFSSLK
Procedure, shortened: as §1

ApoC3 peptide … A39S = target: T20, ApoC3 peptide … A39S (human, not fully specified (bridges); also: cyclic constrained)
T20 peptide: SRGWVTDGFSSLK
Procedure, shortened: as §1

ApoC3 peptide … W42Y = target: T21, ApoC3 peptide … W42Y (human, not fully specified (bridges); also: cyclic constrained)
T21 peptide: ARGYVTDGFSSLK
Procedure, shortened: as §1

ApoC3 peptide … F47G = target: T22, ApoC3 peptide … F47G (human, not fully specified (bridges); also: cyclic constrained)
T22 peptide: ARGWVTDGGSSLK
Procedure, shortened: as §1

ApoC3 peptide … G41K = target: T23, ApoC3 peptide … G41K (human, also: cyclic constrained)
T23 peptide: ARKWVTDGFSSLK
Procedure, shortened: as §1

ApoC3 peptide … W42S = target: T24, ApoC3 peptide … W42S (human, not fully specified (bridges); also: cyclic constrained)
T24 peptide: ARGSVTDGFSSLK
Procedure, shortened: as §1

ApoC3 peptide … T44N = target: T25, ApoC3 peptide … T44N (human, not fully specified (bridges); also: cyclic constrained)
T25 peptide: ARGWVNDGFSSLK
Procedure, shortened: as §1

ApoC3 peptide … G46Q = target: T26, ApoC3 peptide … G46Q (human, not fully specified (bridges); also: cyclic constrained)
T26 peptide: ARGWVTDQFSSLK
Procedure, shortened: as §1

ApoC3 peptide … L50Y = target: T27, ApoC3 peptide … L50Y (human, not fully specified (bridges); also: cyclic constrained)
T27 peptide: ARGWVTDGFSSYK
Procedure, shortened: as §1

ApoC3 peptide … D45R = target: T28, ApoC3 peptide … D45R (human, cyclic constrained)
T28 peptide: ARGWVTRGFSSLK
Procedure, shortened: as §1

ApoC3 peptide … R40K = target: T29, ApoC3 peptide … R40K (human, not fully specified (bridges); also: cyclic constrained)
T29 peptide: AKGWVTDGFSSLK
Procedure, shortened: as §1

ApoC3 peptide … G41W = target: T30, ApoC3 peptide … G41W (human, also: cyclic constrained)
T30 peptide: ARWWVTDGFSSLK
Procedure, shortened: as §1

B1: anti-ApoC3 antibody 14C7 (antibody, V domains shown)
VH: QVQVQESGPGLVKPSQTLSLTCTVSGGSITTNSYYWSWIRQPPGKGLEWMGAIDYSGDTYYSPSLKSRTSISRDTSKNQFTLQLTSVTPEDTAVYYCVSRIPTGEYWGQGTQVTVSS
VL: QTVVTQEPSLSVSPGGTVTLTCGLNSGSVTSSNYPDWYQQTPGQAPRLLIYNTNSRHSGVPSRFSGSISGNKAALTITGAQPEDEADYYCALYMGSDSVVFGGGTHLTVL
notes: it was detected with goat anti-human IgG (Fc); also called mAb 14C7; llama antibody 14C7
% of binding to wild-type peptide (ApoC3 peptide … D45S): 20.8% | % of binding to wild-type peptide (ApoC3 peptide … F47N): 0.06% | % of binding to wild-type peptide (ApoC3 peptide … S48F): 9.29% | % of binding to wild-type peptide (ApoC3 peptide … G41F): 10.8% | % of binding to wild-type peptide (ApoC3 peptide … T44C): 0% | % of binding to wild-type peptide (ApoC3 peptide … R40D): 50% | % of binding to wild-type peptide (ApoC3 peptide … K51V): 3.85% | % of binding to wild-type peptide (ApoC3 peptide … L50C): 0% | % of binding to wild-type peptide (ApoC3 peptide … K51W): 0% | % of binding to wild-type peptide (ApoC3 peptide … K51H): 2.43% | % of binding to wild-type peptide (ApoC3 peptide … F47P): 0% | % of binding to wild-type peptide (ApoC3 peptide … V43M): 20.9% | % of binding to wild-type peptide (ApoC3 peptide … K51D): 0% | % of binding to wild-type peptide (ApoC3 peptide … A39T): 88.7% | % of binding to wild-type peptide (ApoC3 peptide … A39I): 52.3% | % of binding to wild-type peptide (ApoC3 peptide … T44W): 0% | % of binding to wild-type peptide (ApoC3 peptide … S48R): 34.5% | % of binding to wild-type peptide (ApoC3 peptide … D45W): 0.06% | % of binding to wild-type peptide (ApoC3 peptide … T44K): 0% | % of binding to wild-type peptide (ApoC3 peptide … A39S): 81.4% | % of binding to wild-type peptide (ApoC3 peptide … W42Y): 149% | % of binding to wild-type peptide (ApoC3 peptide … F47G): 0% | % of binding to wild-type peptide (ApoC3 peptide … G41K): 18% | % of binding to wild-type peptide (ApoC3 peptide … W42S): 204% | % of binding to wild-type peptide (ApoC3 peptide … T44N): 2.49% | % of binding to wild-type peptide (ApoC3 peptide … G46Q): 0% | % of binding to wild-type peptide (ApoC3 peptide … L50Y): 0.38% | % of binding to wild-type peptide (ApoC3 peptide … D45R): 20.1% | % of binding to wild-type peptide (ApoC3 peptide … R40K): 58.1% | % of binding to wild-type peptide (ApoC3 peptide … G41W): 17.7%
